This is an account of results in the supplement of paper PMC10598134.

The data set is described as follows: collision cross section of unmodified peptide (TIMS, N2, iRT-aligned); higher = larger / more extended gas-phase ion. The method, boiled down:
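Collision cross section was derived from the Mason-Schamp equation. Each value averages 1–3 technical replicates of the most abundant feature per charge state, measured on a timsTOF Pro/HT in dda-PASEF mode (nitrogen, ~2.4 mbar) after a 120-min nanoflow C18 gradient at 60 °C. Synthetic peptide pools (~100 fmol/µL in 2% acetonitrile/0.1% formic acid, iRT standard spiked 1:40) were identified with MaxQuant, and 1/K0 was calibrated with three reference ions and aligned run-wise to the median iRT peptide deviation.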

± gives the standard deviation.

For GSELQNYFTK, the collision cross section (charge state: 2) amounted to 364.76 ± 0.54 Å².

LLEEEDSKLK: the collision cross section stood at 382.28 ± 0.34 Å² (charge state: 2) and 444.51 ± 4.2 Å² (charge state: 3).

Substance YGLIFHSTFIGRAAAK displayed a collision cross section (charge state: 3) of 526.88 Å².

SGGRGVSVSSAR: the collision cross section runs as follows: (charge state: 2) 352.78 ± 0.057 Å²; (charge state: 3) 442.14 ± 3.7 Å².

As to GRGLPGPAESLR, the collision cross section was determined as 364.16 ± 0.25 Å² (charge state: 2) and 446.18 ± 17 Å² (charge state: 3).

PPGFSPFR displayed a collision cross section (charge state: 2) of 328.84 ± 0.79 Å².

For the substance TLQKQSVVYGGK, the collision cross section runs as follows: (charge state: 2) 390.15 ± 1.7 Å²; (charge state: 3) 444.64 ± 5 Å².

Turning to ASDTSSETVFGKR, the collision cross section runs as follows: (charge state: 2) 399.16 ± 2.1 Å²; (charge state: 3) 477.62 ± 3.6 Å².

In the case of GSHGQTPSPGALPLGR, where the note is “charge state: 3”, the collision cross section is 463.73 ± 0.22 Å².

In turn, PGSPGPPGSPGPR showed a collision cross section (charge state: 2) of 347.56 ± 0.41 Å² and a collision cross section (charge state: 3) of 430.78 ± 12 Å².

In the case of FEGAIYR, the collision cross section (charge state: 2) stood at 317.08 ± 0.15 Å².

For the substance LGDVYVNDAFGTAHR, the collision cross section (charge state: 2) was 434.69 ± 0.66 Å² and the collision cross section (charge state: 3) is listed as 501.14 ± 0.88 Å².

Regarding LSQEDPDYGIR, the collision cross section (charge state: 2) came to 376.56 ± 0.14 Å².

With AYILNLVK, the collision cross section (charge state: 2) stood at 331.04 ± 1.1 Å².

For the substance SSFAYKDQNENR, the collision cross section runs as follows: (charge state: 2) 418.44 ± 1.2 Å²; (charge state: 3) 454.53 ± 4.1 Å².

Substance DLATVYVDVLK had a collision cross section (charge state: 2) of 382.78 ± 0.75 Å².

DHSKPISNPSDNK registered a collision cross section (charge state: 2) of 390.86 ± 0.14 Å² and a collision cross section (charge state: 3) of 478.96 ± 0.22 Å².

On to GVQYLNEIK, for which the collision cross section (charge state: 2) is on record as 351.72 ± 0.74 Å².

As for DSLGVSFPEELACK, where the note is “charge state: 2”, the collision cross section was 418.18 ± 0.66 Å².

In turn, YIDNQVVSTKGER displayed a collision cross section (charge state: 2) of 414.64 ± 0.66 Å² and a collision cross section (charge state: 3) of 500.48 ± 1 Å².

Where the note is “charge state: 2”, DYNVTANSK came in with a collision cross section of 328.46 ± 2 Å².

Consider RFSPPSSSLQPGK, for which the collision cross section by setting is: (charge state: 2) 393.03 ± 0.67 Å²; (charge state: 3) 484.72 ± 0.22 Å².

As for LEKDYQPGITFIVVQK, the collision cross section amounted to 447.32 ± 0.59 Å² (charge state: 2) and 488.88 ± 0.86 Å² (charge state: 3).

With IVNVSLADLR, the collision cross section (charge state: 2) was 359.17 ± 0.57 Å².

As to LQDVSGQLSSSKK, the collision cross section is, setting by setting: (charge state: 2) 403.09 ± 1.5 Å²; (charge state: 3) 463.47 ± 6.3 Å².

For the substance GRGAANDSTQFTVAGR, the collision cross section (charge state: 2) turned out to be 411.19 Å² and the collision cross section (charge state: 3) is 473.86 ± 2.3 Å².

In turn, YRGDYDR had a collision cross section (charge state: 2) of 327.87 ± 0.56 Å² and a collision cross section (charge state: 3) of 412.63 ± 6.2 Å².

CQGGQETQEYR: the collision cross section (charge state: 2) is 370.06 ± 0.16 Å².

GGPGSTLSFVGKR: the collision cross section (charge state: 2) is 395.98 ± 0.53 Å² and the collision cross section (charge state: 3) is 456.87 ± 1.5 Å².

With YSSNLGNFNYEQRGAFR, the collision cross section (charge state: 3) worked out at 529.47 ± 0.012 Å².

As to LPEYPQVDDLLLR, the collision cross section (charge state: 2) came to 420.84 ± 0.76 Å².

As for SLFFGGKGAPLQR, the collision cross section was 408.73 ± 1.1 Å² (charge state: 2) and 446.07 ± 3.4 Å² (charge state: 3).

In the case of VYSLFLDESR, the collision cross section (charge state: 2) was found to be 376.99 ± 0.94 Å².

In turn, GDKGDAGEPGR displayed a collision cross section (charge state: 2) of 331.44 ± 0.79 Å² and a collision cross section (charge state: 3) of 419.58 ± 2 Å².

As for GRGYFEHR, the collision cross section stood at 340.02 ± 0.52 Å² (charge state: 2) and 409.47 ± 5.3 Å² (charge state: 3).

On to GTVPDDAVEALADSLGKK, for which the collision cross section is, setting by setting: (charge state: 2) 478 ± 3.1 Å²; (charge state: 3) 520.87 ± 1.8 Å².

Regarding KSQAGASELGPFSDPR, the collision cross section (charge state: 3) turned out to be 497 ± 1.7 Å².

FGRGTGLTQPSQR: the collision cross section is listed as 395.55 ± 1.4 Å² (charge state: 2) and 470.69 ± 2.1 Å² (charge state: 3).

Turning to HGGSGGRGVSVSSAR, the collision cross section (charge state: 3) turned out to be 479.93 ± 1.3 Å².

As for GRGTSQLAEGATAK, the collision cross section is, setting by setting: (charge state: 2) 389.78 ± 0.35 Å²; (charge state: 3) 463.88 ± 3.2 Å².

For the substance RLPNVHGR, the collision cross section (charge state: 2) worked out at 332.52 ± 0.039 Å² and the collision cross section (charge state: 3) worked out at 419.7 ± 5.1 Å².

For the substance GARLPGPVSSAR, the collision cross section runs as follows: (charge state: 2) 359.36 ± 0.74 Å²; (charge state: 3) 465.32 ± 9.3 Å².

As for GAEKTEVAEPR, the collision cross section reads like this: (charge state: 2) 369.12 ± 1.5 Å²; (charge state: 3) 445.67 ± 5 Å².

As for CYYGSDTAGR, under “charge state: 2”, the collision cross section is 353.22 ± 1.1 Å².

Regarding GSGLGARGSSYGVTSTESYK, the collision cross section is, setting by setting: (charge state: 2) 471.67 Å²; (charge state: 3) 515.78 ± 1.1 Å².

With GQKGEPGLPGHPGK, the collision cross section (charge state: 2) is 378.64 ± 1.5 Å² and the collision cross section (charge state: 3) came to 470.96 ± 1.2 Å².

For the substance GGGYGGDRGGYGGDR, the collision cross section reads like this: (charge state: 2) 380.24 Å²; (charge state: 3) 463.21 ± 0.23 Å².

For VLSIGDGIAR, the collision cross section (charge state: 2) turned out to be 348.04 ± 0.14 Å².

In the case of IDLPAENSNSETIIITGKR, the collision cross section runs as follows: (charge state: 2) 488.02 Å²; (charge state: 3) 565.88 ± 0.52 Å².

Regarding PGGLGSSSLYGLGASRPR, the collision cross section came to 472.2 ± 0.073 Å² (charge state: 2) and 533.78 ± 0.86 Å² (charge state: 3).

In the case of GHPGPPGPPGEQGLPGLAGK, the collision cross section was 440.68 ± 1.2 Å² (charge state: 2) and 497.21 ± 14 Å² (charge state: 3).

The substance VLATQPGPGRGR gave a collision cross section (charge state: 2) of 368.04 ± 0.27 Å² and a collision cross section (charge state: 3) of 447.7 ± 3 Å².

For LNAIYQNNLTK, the collision cross section (charge state: 2) is listed as 381.14 ± 0.16 Å².

In the case of LQLEIDQKK, the collision cross section reads like this: (charge state: 2) 366.48 ± 1.6 Å²; (charge state: 3) 427.93 ± 3.7 Å².

Take GRGAAAAGGPQR: the collision cross section worked out at 344.37 ± 5.2 Å² (charge state: 2) and 433.7 ± 4.8 Å² (charge state: 3).

Take ILDLKTGTVK: the collision cross section is, setting by setting: (charge state: 2) 361.56 ± 1.2 Å²; (charge state: 3) 442.8 ± 7.1 Å².

Substance GDIGETGVPGAEGPR came in with a collision cross section (charge state: 2) of 381.04 ± 0.92 Å².

For the substance SRFYSGFNSR, the collision cross section is recorded as 370.83 ± 0.54 Å² (charge state: 2) and 436.82 ± 3.8 Å² (charge state: 3).

Regarding TQAEGQGQGRGLGLVSAVR, the collision cross section (charge state: 3) is recorded as 513.29 ± 0.77 Å².

For the substance VYVGNLGTGAGK, the collision cross section (charge state: 2) came to 357.65 ± 0.15 Å².

Substance NLVTGDHIPTPQDLPQR displayed a collision cross section (charge state: 3) of 475.9 ± 0.23 Å².

Regarding SLKLNTAEDAK, the collision cross section came out at 372.65 ± 1.5 Å² (charge state: 2) and 469.12 ± 5.3 Å² (charge state: 3).

As for DAIHFYNKSLAEHR, the collision cross section stood at 440.43 ± 2.3 Å² (charge state: 2) and 501.63 ± 3.9 Å² (charge state: 3).

Take YGRGQLNYPLPDFSK: the collision cross section is reported as 433.52 Å² (charge state: 2) and 510.01 ± 10 Å² (charge state: 3).

PPGFSPFRSSR: the collision cross section reads like this: (charge state: 2) 357.9 ± 0.86 Å²; (charge state: 3) 455.41 ± 1.7 Å².

On to RGGFAVQAK, for which the collision cross section (charge state: 2) is reported as 337.58 ± 0.46 Å².

In turn, HTLLRAPAPELLPANVAGR had a collision cross section (charge state: 3) of 530.02 ± 1.9 Å².

Consider GFALVGVGSEASSKK, for which the collision cross section was found to be 433.33 ± 1.5 Å² (charge state: 2) and 506.74 ± 2.3 Å² (charge state: 3).

Consider YTAILNQIPSHSSSIR, for which the collision cross section is, setting by setting: (charge state: 2) 475.98 ± 0.82 Å²; (charge state: 3) 510.98 ± 3.8 Å².

As to GERGPPGPPGR, the collision cross section runs as follows: (charge state: 2) 331 ± 1.5 Å²; (charge state: 3) 441.17 ± 1.4 Å².

Substance DFSLTSSSQTPGATK yielded a collision cross section (charge state: 2) of 412.17 ± 0.66 Å² and a collision cross section (charge state: 3) of 461.25 ± 8.8 Å².

For AIQLNPSYIR, under “charge state: 2”, the collision cross section worked out at 373.91 ± 2.8 Å².

As for TLDEILQEKK, the collision cross section reads like this: (charge state: 2) 375.43 ± 1 Å²; (charge state: 3) 432.42 ± 3.6 Å².

Consider GEIGPPGPR, for which, under “charge state: 2”, the collision cross section was 309.77 ± 3.8 Å².

Under “charge state: 3”, TTLTSDESVKDHTTAGR showed a collision cross section of 528.1 ± 0.21 Å².

For the setting “charge state: 2”, VETFSGVYK showed a collision cross section of 332.43 ± 0.59 Å².

The substance GGRGTPGK returned a collision cross section (charge state: 2) of 284.56 ± 17 Å².

SRGGGGNFGPGPGSNFR returned a collision cross section (charge state: 3) of 460.96 ± 1.4 Å².

In the case of VEPIHAVVLPRGK, the collision cross section is, setting by setting: (charge state: 2) 414.74 ± 1.1 Å²; (charge state: 3) 483.53 ± 1.8 Å².

Turning to PRLPATGTFK, the collision cross section is on record as 354.31 ± 1.3 Å² (charge state: 2) and 450.95 ± 3.9 Å² (charge state: 3).

Regarding GEKGDPGLIGPK, the collision cross section (charge state: 2) came to 373.44 ± 1.5 Å² and the collision cross section (charge state: 3) was 449.05 ± 1.4 Å².

Consider AGPNASIISLKSDK, for which the collision cross section reads like this: (charge state: 2) 408.7 ± 1.4 Å²; (charge state: 3) 483.51 ± 6.7 Å².

For the setting “charge state: 2”, TGPPGSTGSR had a collision cross section of 307.73 ± 0.78 Å².

For the setting “charge state: 2”, LQIASDENYK displayed a collision cross section of 357.85 ± 0.48 Å².

As for LDLSSLAYSGK, where the note is “charge state: 2”, the collision cross section is on record as 363.06 ± 1.2 Å².

In the case of VIVGGSSEYK, for the setting “charge state: 2”, the collision cross section was determined as 346.7 ± 0.59 Å².

With IHVQSSSDSSDEPAEKR, the collision cross section runs as follows: (charge state: 2) 455.51 ± 2.8 Å²; (charge state: 3) 536.3 ± 1.4 Å².

For PARGLYSR, the collision cross section is on record as 333.72 ± 0.072 Å² (charge state: 2) and 420.97 ± 6 Å² (charge state: 3).
